Assay results published in patent US20250144178A1, “PHARMACEUTICAL COMPOSITION FOR CANCER TREATMENT COMPRISING FUSION PROTEIN INCLUDING IL-12 AND ANTI-FAP ANTIBODY AND ANTICANCER AGENT” (KANAPH THERAPEUTICS INC., priority 2022, published 2025).

Assays:
[1] = test system: FAP-overexpressing CT26 cells; assay: Tumor growth inhibition, FAP-overexpressing CT26 model, repeated i.p. dosing; format: in vivo, BALB/c mice; settings: 18 days after administration, control 50 μg T1.24m
Description: In order to prepare an mouse FAP-expressing tumor animal model, FAP overexpression was induced in CT26, a mouse colorectal cancer cell line. Specifically, the FAP-overexpressing CT26 cells in culture were resuspended in Hanks' Balanced salt solution (HBSS, Gibco), and then each 100 μl of 1×10^6 tumor cells per each mouse was transplanted into the subcutaneous region of the left dorsal side of 6-week-old BALB/c mice using a 1 cc syringe (25G) to obtain a mouse FAP-expressing colorectal cancer animal model. The tumor size was measured using a digital vernier caliper by measuring the short axis and long axis of the tumor, and the tumor size was measured twice a week using the calculation formula of (short axis, mm) 2×(long axis, mm)×0.5.
(§1) Next, for drug efficacy evaluation, when the size of the tumor reached 100 mm^3, the mice were randomly divided into groups. Each experimental group consisted of 8 animals, and as a control, each 100 μl of 50 μg of T1.24m was intraperitoneally administered four times at an interval of 3 days. In the test group, each 100 μl of 10 μg and 100 μg of T1.01m, and 2 μg, 10 μg and 100 μg of T1.02m, respectively, were intraperitoneally administered four times at an interval of 3 days to evaluate the tumor growth inhibitory ability.

[2] = test system: CT26 colorectal cancer with mouse FAP overexpressing NIH-3T3 cells; assay: Tumor growth inhibition, CT26 co-injected with mouse FAP overexpressing NIH-3T3; format: in vivo, BALB/c mice
Description: Specifically, the mouse FAP overexpressing NIH-3T3 cells and the CT26 cells in culture were resuspended in Hanks' Balanced salt solution (HBSS, Gibco) at a concentration of 1×10^6 cells/50 μl, respectively, and the cells were mixed in a 1:1 ratio, and then 100 μl per each mouse was transplanted into the subcutaneous region of the right flank of 6-week-old BALB/c mice using a 1 cc syringe (25G) to obtain an FAP-expressing fibroblast co-injection animal model. The tumor size was measured using a digital vernier caliper by measuring the short axis and long axis of the tumor, and the tumor size was measured twice a week using the calculation formula of (short axis, mm) 2×(long axis, mm)×0.5.
as §1, with “of 10” for “of 8”, “administered three” for “administered four”, “and 50 μg of T1.02m and 50” for “and 100”, “T1.01m,” for “T1.01m, and 2 μg, 10 μg and 100 μg of T1.02m,”

HEK-Blue IL-12 cells = assay: Signaling ability in IL-12 recognizing cells (STAT4 inducible SEAP reporter); format: cell-based, human; settings: serial dilution from 4 nM, 24 hours, FIG. 18
Method in brief: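 HEK293 cells stably carrying IL-12 receptor and STAT4-inducible SEAP reporter, plated at 2.8×10^5 cells/ml, treated 24 h with serially diluted IL-12 or variants (4 nM starting solution). Secreted SEAP in supernatant read with QUANTI-Blue at 620 nm.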

CT26 tumor = assay: Tumor re-challenge in mice with complete response, CT26 tumor; format: in vivo, BALB/c mice; settings: mice with complete response after T1.01m, right flank, FIG. 26
Description: (§2) In order to evaluate whether tumor recurrence may be inhibited by inducing long-term immune response after fusion protein treatment, tumor re-challenge was performed in subjects in which complete response was achieved by administration of T1.01m in a tumor model transplanted with CT26 cells overexpressing FAP. BALB/c mice without a treatment history were used as control mice.
(§3) 4T1 cells were subcutaneously injected into the left flank and CT26 cells were subcutaneously injected into the right flank of control mice and mice in which complete response was achieved by administration of T1.01m, to obtain a tumor recurrence model.
(§4) CT26 cells and 4T1 cells were suspended in Hanks' Balanced salt solution (HBSS, Gibco) at a concentration of 1×10^6 cells/100 μl, respectively, and CT26 cells were transplanted into the subcutaneous region of the right flank of the mice using a 1 cc syringe (25G). Tumor formation and growth were evaluated by subcutaneous transplantation of 4T1 cells into the left flank of the same mice. Nine animals were used for the control group, and seven animals were used for the test group.

4T1 tumor = assay: Tumor re-challenge in mice with complete response, 4T1 tumor; format: in vivo, BALB/c mice; settings: mice with complete response after T1.01m, left flank, FIG. 27
Description: as §2, §3, §4

[3] = test system: FAP-overexpressing mouse colorectal cancer CT26; assay: Tumor growth inhibition by IL-12 mutation, FAP-overexpressing CT26, single i.v. dose; format: in vivo, BALB/c mice; settings: 10 μg i.v. once, 15 days after administration, control PBS, FIG. 28
Description: In order to evaluate the change in IL-12 activity according to the presence and extent of amino acid mutation, FAP-overexpressing mouse colorectal cancer CT26 was prepared by resuspending in PBS at a concentration of 5×10^5 cells/100 μl, and the tumor growth inhibitory ability was evaluated in a tumor animal model prepared by transplantation of the cells into 5-week-old female BALB/c mice.
Specifically, when the size of the tumor in the model reached 100 mm^3, the mice were randomly divided into groups. 100 μl of phosphate buffered saline (PBS) was administered once via tail vein injection of the control, and each of T1.01m, T1.02m and T1.03m was intravenously administered once at a dose of 10 μg.

B1: T1.01m: K&H bispecific: anti-mu FAP/mu IL-12, mu IgG2a DANG (seq18, seq19, seq20) (antibody)
heavy: QVQLQQSGAELARPGASVNLSCKASGYTFTNNGINWLKQRTGQGLEWIGEIYPRSTNTLYNEKFKGKATLTADRSSNTAYMELRSLTSEDSAVYFCARTLTAPFAFWGQGTLVTVSAAKTTAPSVYPLAPVCGDTTGSSVTLGCLVKGYFPEPVTLTWNSGSLSSGVHTFPAVLQSDLYTLSSSVTVTSSTWPSQSITCNVAHPASSTKVDKKIEPRGPTIKPCPPCKCPAPNLLGGPSVFIFPPKIKDVLMISLSPIVTCVVVAVSEDDPDVQISWFVNNVEVHTAQTQTHREDYGSTLRVVSALPIQHQDWMSGKEFKCKVNNKDLPAPIERTISKPKGSVRAPQVYVLPPPEEEMTKKQVTLWCMVTDFMPEDIYVEWTNNGKTELNYKNTEPVLDSDGSYFMYSKLRVEKKNWVERNSYSCSVVHEGLHNHHTTKSFSRTPGK
light: QIVLTQSPAIMSASPGEKVTMTCSASSGVNFMHWYQQKSGTSPKRWIFDTSKLASGVPARFSGSGSGTSYSLTISSMEAEDAATYYCQQWSFNPPTFGGGTKLEIKRADAAPTVSIFPPSSEQLTSGGASVVCFLNNFYPKDINVKWKIDGSERQNGVLNSWTDQDSKDSTYSMSSTLTLTKDEYERHNSYTCEATHKTSTSPIVKSFNRNEC
chain: MWELEKDVYVVEVDWTPDAPGETVNLTCDTPEEDDITWTSDQRHGVIGSGKTLTITVKEFLDAGQYTCHKGGETLSHSHLLLHKKENGIWSTEILKNFKNKTFLKCEAPNYSGRFTCSWLVQRNMDLKFNIKSSSSSPDSRAVTCGMASLSAEKVTLDQRDYEKYSVSCQEDVTCPTAEETLPIELALEARQQNKYENYSTSFFIRDIIKPDPPKNLQMKPLKNSQVEVSWEYPDSWSTPHSYFSLKFFVRIQRKKEKMKETEEGCNQKGAFLVEKTSTEVQCKGGNVCVQAQDRYYNSSCSKWACVPCRVRSGGGGSGGGGSGGGGSRVIPVSGPARCLSQSRNLLKTTDDMVKTAREKLKHYSCTAEDIDHEDITRDQTSTLKTCLPLELHKNESCLATRETSSTTRGSCLPPQKTSLMMTLCLGSIYEDLKMYQTEFQAINAALQNHNHQQIILDKGMLVAIDELMQSLNHNGETLRQKPPVGEADPYRVKMKLCILLHAFSTRVVTINRVMGYLSSAGGGGSGGGGSEPRGPTIKPCPPCKCPAPNLLGGPSVFIFPPKIKDVLMISLSPIVTCVVVAVSEDDPDVQISWFVNNVEVHTAQTQTHREDYGSTLRVVSALPIQHQDWMSGKEFKCKVNNKDLPAPIERTISKPKGSVRAPQVYVLPPPEEEMTKKQVTLSCAVTDFMPEDIYVEWTNNGKTELNYKNTEPVLDSDGSYFMVSKLRVEKKNWVERNSYSCSVVHEGLHNHHTTKSFSRTPGK
tumor growth inhibitory ability compared to control ([1]; 10 μg i.p. four times at an interval of 3 days): 84.9%
tumor growth inhibitory ability compared to control ([1]; 100 μg i.p. four times at an interval of 3 days): 85.6%
tumor growth inhibitory ability compared to control ([2]; 50 μg i.p. three times at an interval of 3 days, 14th day, control 50 μg T1.24m): 91.9%
complete response ([2]; 24th day after administration, FIG. 24): subjects in complete response were observed
IL-12 recognition / STAT4 reporter gene expression (620 nm absorbance) (HEK-Blue IL-12 cells): IL-12 was recognized, and STAT4 expressed a reporter gene by inducing phosphorylation
growth of re-challenged CT26 tumor (CT26 tumor): the growth of the CT26 tumor was inhibited
growth of re-challenged 4T1 tumor (4T1 tumor): the 4T1 tumor grew
tumor growth inhibitory ability compared to the control [3]: excellent tumor growth inhibitory ability
